In patent publication US20040091475A1 (Chugai, published 2004):

What was measured:
[1] = target: T1, human Integrin Associated Protein (IAP) expressed on mouse leukemia cell line L1210 (human, UniProt Q08722 19-323); assay: flow cytometry on L1210 cells expressing human IAP; COS7 culture supernatant; mouse anti-FLAG antibody, then FITC-labeled anti-mouse IgG antibody
T1 construct: whole, on cells; also called human IAP; hIAP/L1210
Protocol: Flow cytometry was performed using the aforementioned COS7 cells culture supernatant to measure the binding to the antigen. The culture supernatant of the COS7 cells expressing the reconstructed single chain Fv of antibody MABL-2 or the culture supernatant of COS7 cells transformed with pCHO1 vector as a control was added to 2×10⁵ cells of the mouse leukemia cell line L1210 expressing human Integrin Associated Protein (IAP) or the cell line L1210 transformed with pCOS1 as a control. After incubating on ice and washing, the mouse anti-FLAG antibody (SIGMA) was added. Then the cells were incubated and washed. Then, the FITC labeled anti-mouse IgG antibody (BECTON DICKINSON) was added thereto and the cells were incubated and washed again. Subsequently, the fluorescence intensity was measured using the FACScan apparatus (BECTON DICKINSON).

[2] = target: T2, secretion-type human IAP antigen (human, UniProt Q08722 19-142, limits assumed); assay: competitive ELISA: secretion-type human IAP captured on anti-FLAG antibody; competitor biotinized MABL-2 antibody at 100 ng/ml; serial dilutions of COS7 culture supernatant (x axis: dilution ratio of CM, no concentration unit)
T2 construct: captured on plates coated with anti-FLAG antibody
T2 sequence (Q08722 other isoform, or with tags, fused parts or gaps limits assumed): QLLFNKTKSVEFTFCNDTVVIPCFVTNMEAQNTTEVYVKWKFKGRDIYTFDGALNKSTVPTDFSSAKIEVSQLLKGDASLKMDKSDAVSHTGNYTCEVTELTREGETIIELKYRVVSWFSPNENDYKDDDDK
Protocol: The binding activity of the reconstructed single chain Fv of antibody MABL-2 was measured based on the inhibiting activity against the binding of mouse monoclonal antibodies to the antigen.
The anti-FLAG antibody adjusted to 1 μg/ml was added to each well on 96-well plate and incubated at 37° C. for 2 hours. After washing, blocking was performed with 1% BSA-PBS. After incubating and washing at a room temperature, the culture supernatant of COS7 cells into which the secretion-type human IAP antigen gene (SEQ ID No. 26) had been introduced was diluted with PBS into twofold volume and added to each well. After incubating and washing at a room temperature, a mixture of 50 μl of the biotinized MABL-2 antibody adjusted to 100 ng/ml and 50 μl of sequentially diluted supernatant of the COS7 cells expressing the reconstructed single chain Fv of antibody MABL-2 were added into each well. After incubating and washing at a room temperature, the alkaline phosphatase-conjugated streptoavidin (Zymed) was added into each well. After incubating and washing at a room temperature, the substrate solution (SIGMA) was added and absorbance of the reaction mixture in each well was measured at 405 nm.

T1 sequence (Q08722 19-323): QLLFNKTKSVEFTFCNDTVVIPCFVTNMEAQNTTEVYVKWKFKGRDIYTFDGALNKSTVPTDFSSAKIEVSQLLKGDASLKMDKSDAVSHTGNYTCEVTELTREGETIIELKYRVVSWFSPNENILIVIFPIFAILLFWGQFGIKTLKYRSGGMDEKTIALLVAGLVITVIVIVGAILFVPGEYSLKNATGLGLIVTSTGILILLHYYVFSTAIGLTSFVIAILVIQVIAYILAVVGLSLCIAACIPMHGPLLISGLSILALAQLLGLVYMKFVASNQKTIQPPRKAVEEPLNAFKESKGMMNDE

binding result [1]: binds
binding result [2]: binds
B1: reconstructed single chain Fv of antibody MABL-2 (plasmid pCHOM2), culture supernatant of COS7 cells (scFv)
scFv: QVQLQQSGPELVKPGASVKMSCKASGYTFANHVIHWVKQKPGQGLEWIGYIYPYNDGTKYNEKFKDKATLTSDKSSTTAYMDLSSLASEDSAVYYCARGGYYTYDDWGQGTTLTVSSGGGGSGGGGSGGGGSDVVMTQSPLSLPVSLGDQASISCRSSQSLVHSNGKTYLHWYLQKPGQSPKLLIYKVSNRFSGVPDRFSGSGSVTDFTLMISRVEAEDLGVYFCSQSTHVPYTFGGGTKLEIKDYKDDDDK
notes: VH-(Gly4Ser)3-VL-FLAG; Unfractionated supernatant (monomer and dimer not separated); also called MABL2-scFv; MABL2-scFv/COS7
